According to publication PMC6476560 (PLoS ONE, 2019):

Legend:
Assay in all cases: MST
[1] = target: fluorescently labelled Dop (deamidase of Pup; depupylase) (UniProt P9WNU9)
[2] = target: fluorescein-labelled wild-type MtbMpa (Mycobacterium tuberculosis) (UniProt P9WQN5)
[3] = target: T1, fluorescein-labelled wild-type MtbMpa (Mycobacterium tuberculosis, UniProt P9WQN5 1-609); settings: both partners purified
T1 sequence: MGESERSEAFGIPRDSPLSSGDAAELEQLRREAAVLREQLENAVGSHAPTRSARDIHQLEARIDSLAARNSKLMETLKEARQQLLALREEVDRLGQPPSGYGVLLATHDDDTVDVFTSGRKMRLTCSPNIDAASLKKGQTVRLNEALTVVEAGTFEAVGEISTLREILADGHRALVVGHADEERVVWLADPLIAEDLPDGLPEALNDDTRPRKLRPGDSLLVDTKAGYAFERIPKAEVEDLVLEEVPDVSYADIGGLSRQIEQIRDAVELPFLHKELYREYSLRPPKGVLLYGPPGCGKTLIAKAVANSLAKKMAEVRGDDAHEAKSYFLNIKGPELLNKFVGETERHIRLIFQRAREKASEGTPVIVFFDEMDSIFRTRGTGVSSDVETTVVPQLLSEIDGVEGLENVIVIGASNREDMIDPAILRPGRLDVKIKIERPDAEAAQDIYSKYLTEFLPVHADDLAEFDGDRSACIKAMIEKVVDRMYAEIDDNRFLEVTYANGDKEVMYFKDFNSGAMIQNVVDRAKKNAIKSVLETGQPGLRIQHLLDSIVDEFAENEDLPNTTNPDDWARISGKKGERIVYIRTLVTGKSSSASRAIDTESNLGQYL

[4] = target: T2, Pup-MSMEG_1807 (pupylated alpha-chain of propionyl-CoA carboxylase of M. smegmatis) (Mycobacterium smegmatis | Mycobacterium …, UniProt A0QTE1 1-598; P9WHN5 1-64, PupE (C-terminal glutamine as glutamate)); settings: both partners purified
T2 construct: copies: 2 + 1

[5] = target: T3, Pup-MSMEG_5049 (pupylated 2-oxoglutarate dehydrogenase E1 of M. smegmatis) (Mycobacterium smegmatis | Mycobacterium …, UniProt A0R2B1;P9WHN5, PupE (C-terminal glutamine as glutamate)); settings: both partners purified
T3 construct: copies: 2 + 1
T3 sequence 1: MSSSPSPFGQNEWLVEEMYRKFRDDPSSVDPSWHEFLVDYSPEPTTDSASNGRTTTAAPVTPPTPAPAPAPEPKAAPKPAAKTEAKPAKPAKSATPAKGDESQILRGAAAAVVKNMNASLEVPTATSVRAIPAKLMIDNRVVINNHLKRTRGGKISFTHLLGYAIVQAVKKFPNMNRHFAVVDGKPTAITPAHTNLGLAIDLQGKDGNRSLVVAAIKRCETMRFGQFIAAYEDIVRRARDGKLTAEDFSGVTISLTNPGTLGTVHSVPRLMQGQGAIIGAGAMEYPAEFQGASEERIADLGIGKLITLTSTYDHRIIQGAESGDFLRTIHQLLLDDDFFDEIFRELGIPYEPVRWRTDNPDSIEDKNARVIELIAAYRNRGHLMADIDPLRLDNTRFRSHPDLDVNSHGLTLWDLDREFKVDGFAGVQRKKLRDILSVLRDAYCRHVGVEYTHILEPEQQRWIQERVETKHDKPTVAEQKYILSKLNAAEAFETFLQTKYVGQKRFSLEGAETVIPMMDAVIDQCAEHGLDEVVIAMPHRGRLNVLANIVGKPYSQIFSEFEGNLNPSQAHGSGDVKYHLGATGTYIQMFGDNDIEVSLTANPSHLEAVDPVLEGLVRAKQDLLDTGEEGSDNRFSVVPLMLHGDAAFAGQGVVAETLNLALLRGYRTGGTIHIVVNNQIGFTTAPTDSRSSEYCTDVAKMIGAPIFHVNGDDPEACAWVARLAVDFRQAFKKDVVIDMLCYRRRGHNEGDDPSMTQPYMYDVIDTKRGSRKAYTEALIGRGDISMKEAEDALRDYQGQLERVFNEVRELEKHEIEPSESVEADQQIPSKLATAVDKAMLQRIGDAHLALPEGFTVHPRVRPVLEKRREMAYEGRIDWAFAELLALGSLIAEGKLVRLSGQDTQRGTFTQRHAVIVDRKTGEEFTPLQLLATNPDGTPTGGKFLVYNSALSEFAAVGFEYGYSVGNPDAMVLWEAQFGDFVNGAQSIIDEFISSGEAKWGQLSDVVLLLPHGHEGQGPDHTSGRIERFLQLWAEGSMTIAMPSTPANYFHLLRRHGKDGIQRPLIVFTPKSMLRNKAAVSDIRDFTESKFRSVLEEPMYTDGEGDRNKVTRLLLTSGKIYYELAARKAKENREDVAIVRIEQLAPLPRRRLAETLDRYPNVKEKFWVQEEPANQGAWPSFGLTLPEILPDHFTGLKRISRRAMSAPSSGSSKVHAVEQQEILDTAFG
T3 sequence 2: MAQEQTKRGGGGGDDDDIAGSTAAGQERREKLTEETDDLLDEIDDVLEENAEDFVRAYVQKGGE

Pup-MSMEG_2412 (pupylated pyruvate carboxylase of M. smegmatis) (from UniProt P9WHN5 1-64) (complex)
Kd [1]: 114 nM

Pup-FabD3KR (pupylated malonyl transacylase FabD, triple lysine-to-arginine variant) (from UniProt P9WNG5;P9WHN5) (complex)
Kd [2]: 240 nM

B1: MtbPupE (prokaryotic ubiquitin-like protein Pup with C-terminal glutamate), free (natural protein)
chain: T3 sequence 2
Kd [3]: 3310 ± 650 nM

B2: fluorescently labelled Dop (deamidase of Pup; depupylase) (enzyme)
chain: MQRIIGTEVEYGISSPSDPTANPILTSTQAVLAYAAAAGIQRAKRTRWDYEVESPLRDARGFDLSRSAGPPPVVDADEVGAANMILTNGARLYVDHAHPEYSAPECTDPLDAVIWDKAGERVMEAAARHVASVPGAAKLQLYKNNVDGKGASYGSHENYLMSRQTPFSAIITGLTPFLVSRQVVTGSGRVGIGPSGDEPGFQLSQRSDYIEVEVGLETTLKRGIINTRDEPHADADRYRRLHVIIGDANLAETSTYLKLGTTALVLDLIEEGPAHAIDLTDLALARPVHAVHAISRDPSLRATVALADGRELTGLALQRIYLDRVAKLVDSRDPDPRAADIVETWAHVLDQLERDPMDCAELLDWPAKLRLLDGFRQRENLSWSAPRLHLVDLQYSDVRLDKGLYNRLVARGSMKRLVTEHQVLSAVENPPTDTRAYFRGECLRRFGADIAAASWDSVIFDLGGDSLVRIPTLEPLRGSKAHVGALLDSVDSAVELVEQLTAEPR
Kd [4]: 339 ± 55 nM | Kd [5]: 121 ± 28 nM
